Assay results taken from patent publication US10370642B2, “Hematopoietic progenitor cell populations having affinity for E-selectin / L-selectin” (priority 2000, dated 2019).

What was measured:
L-selectin = experiment: Stamper-Woodruff assay, lymphocyte adherence to immunoprecipitated CD44 and PSGL-1; format: cell-based, rat; conditions: equimolar amounts; from 40 to 100 rpm
E-selectin = target: T1, E-selectin (Homo sapiens, UniProt P16581); experiment: CHO-E cell rolling on immobilized immunoprecipitates, parallel-plate flow chamber; format: cell-based; conditions: immunoprecipitates on plastic; 2.8 dynes/cm^2
T1 construct: stably transfected with full-length cDNA encoding human E-selectin; expressed in transfected cells
T1 sequence (P16581 22-610): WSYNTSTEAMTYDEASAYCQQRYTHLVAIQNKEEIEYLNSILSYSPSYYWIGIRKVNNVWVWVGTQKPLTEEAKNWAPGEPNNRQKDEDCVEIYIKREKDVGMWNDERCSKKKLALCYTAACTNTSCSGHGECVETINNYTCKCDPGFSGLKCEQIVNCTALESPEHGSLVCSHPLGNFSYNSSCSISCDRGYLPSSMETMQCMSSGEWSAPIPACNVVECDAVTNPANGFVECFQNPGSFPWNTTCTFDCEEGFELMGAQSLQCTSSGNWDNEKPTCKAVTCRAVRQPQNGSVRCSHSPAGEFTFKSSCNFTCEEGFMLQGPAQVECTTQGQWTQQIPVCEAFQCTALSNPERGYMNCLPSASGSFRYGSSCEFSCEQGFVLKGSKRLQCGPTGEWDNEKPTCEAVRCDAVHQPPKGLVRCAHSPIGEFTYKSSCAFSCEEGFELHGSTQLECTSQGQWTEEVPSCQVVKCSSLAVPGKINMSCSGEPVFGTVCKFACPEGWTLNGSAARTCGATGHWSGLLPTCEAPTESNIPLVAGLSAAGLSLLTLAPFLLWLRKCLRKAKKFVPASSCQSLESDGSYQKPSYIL
Experimental: CD44 was immunoprecipitated from untreated cell lysates or from cell lysates treated with N-glycosidase-F (0.8 U/ml) Vibrio cholerae neuraminidase (0.1 U/ml) or a-L-fucosidase (80 mU/ml), and PSGL-1 was immunoprecipitated from untreated cell lysates as previously described (Sackstein and Dimitroff, 2000; Dimitroff et al., 2000).
CD44 or PSGL-1 immunoprecipitates were spotted onto plastic petri dishes, fixed in 3% glutaraldehyde and incubated in 0.2M lysine to block unreactive aldehyde groups, and then non-specific binding was prevented by incubating in 100% FBS for 1 hr at RT. Fixed spots were also treated with Vibrio cholerae neuraminidase (0.1 U/ml assay medium), which was overlaid onto the spots and incubated at 37° C. for 1 hr. […] The flow rate was then increased to achieve a shear stress of 2.8 dynes/cm^2. The frequency of cells rolling per 100× magnification field was determined, and data were expressed as the mean±standard deviation of 8 fields visualized from a minimum of 3 experiments.

P-selectin = target: T2, P-selectin (Homo sapiens, UniProt P16109); experiment: CHO-P cell rolling on immobilized immunoprecipitates, parallel-plate flow chamber; format: cell-based; conditions: 2.8 dynes/cm^2
T2 construct: CHO-P (CHO stably transfected with human cDNA encoding full length P-selectin); expressed in transfected cells
T2 sequence (P16109 42-830): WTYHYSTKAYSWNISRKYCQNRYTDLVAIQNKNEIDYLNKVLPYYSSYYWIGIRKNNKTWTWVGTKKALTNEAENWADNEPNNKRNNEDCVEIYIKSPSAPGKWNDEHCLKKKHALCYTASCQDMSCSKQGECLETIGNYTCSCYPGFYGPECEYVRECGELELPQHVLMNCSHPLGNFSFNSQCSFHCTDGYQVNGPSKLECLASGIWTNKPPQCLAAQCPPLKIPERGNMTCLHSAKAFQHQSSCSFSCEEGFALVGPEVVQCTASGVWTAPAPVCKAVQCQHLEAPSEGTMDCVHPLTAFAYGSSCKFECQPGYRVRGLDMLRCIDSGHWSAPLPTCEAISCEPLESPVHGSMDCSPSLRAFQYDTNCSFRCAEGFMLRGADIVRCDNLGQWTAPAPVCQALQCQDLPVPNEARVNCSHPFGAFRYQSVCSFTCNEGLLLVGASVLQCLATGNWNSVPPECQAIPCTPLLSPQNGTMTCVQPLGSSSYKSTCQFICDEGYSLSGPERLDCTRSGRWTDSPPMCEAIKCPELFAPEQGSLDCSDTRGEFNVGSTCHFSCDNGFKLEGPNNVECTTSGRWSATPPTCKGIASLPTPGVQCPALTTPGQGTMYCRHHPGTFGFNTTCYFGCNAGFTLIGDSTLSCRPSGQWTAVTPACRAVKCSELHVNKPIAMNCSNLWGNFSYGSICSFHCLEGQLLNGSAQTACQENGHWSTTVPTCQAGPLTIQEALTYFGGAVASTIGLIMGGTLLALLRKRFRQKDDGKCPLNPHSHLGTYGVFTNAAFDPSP
Experimental: CD44 or PSGL-1 immunoprecipitates were spotted onto plastic petri dishes, fixed in 3% glutaraldehyde and incubated in 0.2M lysine to block unreactive aldehyde groups, and then non-specific binding was prevented by incubating in 100% FBS for 1 hr at RT. Fixed spots were also treated with Vibrio cholerae neuraminidase (0.1 U/ml assay medium), which was overlaid onto the spots and incubated at 37° C. for 1 hr. The protein dishes were placed in the parallel-plate flow chamber and CHO-E, CHO-P (CHO stably transfected with human cDNA encoding full length P-selectin), CHO-P cells treated with function blocking anti-P-selectin moAb (clone AK-4; Pharmingen) (10 μg/ml), CHO-E cells treated with function blocking anti-E-selectin Abs (10 μg/ml) (clone 68-5H1 1) or Mock transfectants were perfused into the chamber (2×10^6/ml H/H/Ca++) at a flow rate of 0.2 ml/min until the cells were in contact with the substrate. The flow rate was then increased to achieve a shear stress of 2.8 dynes/cm^2. The frequency of cells rolling per 100× magnification field was determined, and data were expressed as the mean±standard deviation of 8 fields visualized from a minimum of 3 experiments.

Substance: KG1a CD44: glycoform of CD44 with HECA-452 reactive sialylated, fucosylated N-glycans, immunoprecipitated from KG1a cells with Hermes-1
- fold higher lymphocyte adherence compared with PSGL-1 (L-selectin): 5- to 10 fold
- E-selectin ligand activity (CHO-E cell rolling) (E-selectin): exhibited E-selectin ligand activity over a range of shear stress
- P-selectin ligand activity (CHO-P cell rolling) (P-selectin): not a P-selectin ligand
